Results published in publication PMC7317449, “On the mechanism of calcium‐dependent activation of NADPH oxidase 5 (NOX5)” (The Febs Journal, 2019).

Tests used:
[1] = target: the molecule itself; test: SEC-MALS; Superdex 200 10/300 GL, 100 μL samples, 50 mM Hepes pH 7.0, 25 mM NaCl, 0.5 TCEP, 1 mL/min; monomer to dimer
human calmodulin = target: T1, human calmodulin (human, UniProt P0DP23 1-149); test: crystal structure; cocrystallised: 1078 µM calmodulin, 2800 µM peptide, 30 mM Tris/HCl pH 7.4, 2.5 mM CaCl2, 20 °C, sitting drop; 2.2 Å; details: both partners purified
T1 construct: calmodulin, human; gene a gift from Susan Shao, cloned in pET15b without tag; source: cloned in pET15b without tag, purified following established protocols

| binding result (human calmodulin) | Binder | stoichiometry N [1] |
| --- | --- | --- |
|  | EF-domain of hNOX5 (residues 1–161, isoform β) (domain or fragment, human, NADPH oxidase 5 (NOX5), human, isoform β (v2), EF-domain, residues 1-161; stretch of three alanines from the Not I restriction site, added at the C terminus for cloning reasons (told in words); also called human EF-domain; hEF domain; source: E. coli BL21, purified (Strep column, TEV cleavage, Strep and Nickel columns, Superdex 75); not shown: Strep-tag, N-terminal, cleaved) MSAEEDARWLRWVTQQFKTIAGEDGEISLQEFKAALHVKESFFAERFFALFDSDRSGTITLQELQEALTLLIHGSPMDKLKFLFQVYDIDGSGSIDPDELRTVLQSCLRESAISLPDEKLDQLTLALFESADADGNGAITFEELRDELQRFPGVMENLTISAAA | 2 |
| binds | Ac-DWSKVFQKVAAEKKGKVQV-NH2 (methods: peptide 673-691; The limits are told in two ways (673-691 and 674-685); Val691 is named as a contact, which fits 673-691; also called DH peptide; hNOX5 peptide; source: synthetic peptide (Chinepeptide Co, Shanghai)) [peptide 673–691 of human DH-domain (putative calmodulin-binding region of hNOX5)] |  |
